Measured values published in patent US20220332804A1 (CSL INNOVATION, published 2022).
Residue numbers refer to the chain shown, from its start.

Columns and labels:
Assay in all cases: SPR, mAb captured, C2 mutant analyte;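 also: Anti-C2 mAbs captured on goat anti-human IgG Biacore CM5 chips, alanine or serine C2 surface mutants flowed over at 37 °C, double-referenced sensorgrams fitted to a 1:1 binding model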
human C2 D269A = target: T1, human C2 D269A (human, UniProt P06681 21-752)
T1 sequence: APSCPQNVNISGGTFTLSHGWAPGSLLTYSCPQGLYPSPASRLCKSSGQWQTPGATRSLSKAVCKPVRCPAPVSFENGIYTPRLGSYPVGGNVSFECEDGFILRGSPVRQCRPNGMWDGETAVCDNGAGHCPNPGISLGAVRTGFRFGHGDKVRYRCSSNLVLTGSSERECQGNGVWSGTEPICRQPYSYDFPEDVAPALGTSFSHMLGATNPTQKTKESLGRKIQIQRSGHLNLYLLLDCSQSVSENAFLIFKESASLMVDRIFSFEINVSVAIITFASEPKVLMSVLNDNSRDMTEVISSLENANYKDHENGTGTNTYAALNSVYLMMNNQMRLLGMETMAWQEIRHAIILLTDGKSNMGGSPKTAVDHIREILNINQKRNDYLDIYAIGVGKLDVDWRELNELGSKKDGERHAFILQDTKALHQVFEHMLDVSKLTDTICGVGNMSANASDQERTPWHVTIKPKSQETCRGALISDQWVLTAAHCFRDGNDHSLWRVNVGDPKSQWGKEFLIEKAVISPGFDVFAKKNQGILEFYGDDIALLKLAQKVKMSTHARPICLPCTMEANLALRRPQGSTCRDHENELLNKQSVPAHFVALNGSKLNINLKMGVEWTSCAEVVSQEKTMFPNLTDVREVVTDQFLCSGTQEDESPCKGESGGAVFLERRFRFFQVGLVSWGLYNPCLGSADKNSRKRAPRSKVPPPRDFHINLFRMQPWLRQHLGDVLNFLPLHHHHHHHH

human C2 Y328A = target: T2, human C2 Y328A (human, UniProt P06681 21-752)
T2 sequence: T1 sequence with A249D, Y308A

human C2 G427A = target: T3, human C2 G427A (human, UniProt P06681 21-752)
T3 sequence: T1 sequence with A249D, G407A

human C2 H446A = target: T4, human C2 H446A (human, UniProt P06681 21-752)
T4 sequence: T1 sequence with A249D, H426A

Kd (human C2 D269A): 0.0172 µM | Kd (human C2 Y328A): 0.196 µM | Kd (human C2 G427A): 0.0088 µM | Kd (human C2 H446A): 0.153 µM
B1: RF16-214 (antibody, V domains shown)
VH: EVQLLESGGGLVQPGGSLRLSCAASGFTFSWYQMMWVRQAPGKGLEWVSRIYPSGGGTAYADSVKGRFTISRDNSKNTLYLQMNSLRAEDTAVYYCARDAGYGDNWGQGTLVTVSS
VL: QSALTQPPSVSVSPGQTASITCSGDKLGEKYASWYQQKAGQSPVMVIYQDRKRPSGIPERFSGSNSGNTATLTISGTQAMDEADYYCQAWDTRAVVFGGGTKLTVLG
